Measurements as given in patent US20140193400A1 (ESBATECH AN ALCON BIOMEDICAL RESEARCH UNIT, published 2014).
Where two headings read alike, the source gives them in different places.

Columns and labels:
[1] = target: T1, recombinant human TNFalpha (human, UniProt P01375 77-233); test: cell-based or functional assay
[2] = target: T1, recombinant human TNFalpha; test: cell-based or functional assay; remark: listed apart in the source
[3] = target: T1, recombinant human TNFalpha; test: secretion ELISA on TNFα, bacterial culture supernatant not normalised for single-chain antibody content
[4] = target: T1, recombinant human TNFalpha; test: cell-based or functional assay; remark: listed apart in the source
[5] = target: T1, recombinant human TNFalpha; test: cell-based or functional assay; remark: listed apart in the source
[6] = target: T1, recombinant human TNFalpha; test: cell-based or functional assay; remark: listed apart in the source
[7] = target: T2, Human TNFa N-his trimers (His-tagged TNF, produced at ESBATech) (human, UniProt P01375 77-233); test: SPR (BIAcore T100), His-tagged human TNF captured on NTA chip, scFv as analyte
T2 construct: Captured as trimers on a Ni-NTA sensor chip by the N-terminal His tags in the Biacore assay of the general methods; also called human TNFα; human TNF alpha; not shown: N-terminal His tag
Procedure: (§1) For binding affinity measurements at pH5 and pH 7.4 (data not shown), surface Plasmon resonance measurements with BIAcore™-T 100 were employed using a NTA sensor chip and His-tagged TNF (produced at ESBATech). The surface of the NTA sensor chip consists of a carboxymethylated dextran matrix pre-immobilized with nitrilotriacetic acid (NTA) for capture of histidine tagged molecules via Ni2+NTA chelation. Human TNFa N-his trimers (5 nM) are captured by the nickel via their N-terminal his-tags and ESBA105 (analyte) is injected at several concentrations ranging from 30 nM to 0.014 nM in 3 fold serial dilution steps. At the regeneration step, the complex formed by nickel, ligand and analyte is washed away. This allows the use of the same regeneration conditions for different samples. The response signal is generated by surface Plasmon resonance (SPR) technology and measured in resonance units (RU). All the measurements are performed at 25° C. Sensorgrams were generated for each anti-TNF scFv sample after in-line reference cell correction followed by buffer sample subtraction. The apparent dissociation rate constant (kd), the apparent association rate constant (kₐ) and the apparent dissociation equilibrium constant (KD) were calculated using one-to-one Langmuir binding model with BIAcore T100 evaluation Software version 1.1.

[8] = target: T2, Human TNFa N-his trimers (His-tagged …); test: SPR (BIAcore), His-tagged human TNF captured on NTA chip, scFv as analyte; units taken from paragraph 184
Procedure: as §1

T2 sequence (P01375 77-233 limits assumed): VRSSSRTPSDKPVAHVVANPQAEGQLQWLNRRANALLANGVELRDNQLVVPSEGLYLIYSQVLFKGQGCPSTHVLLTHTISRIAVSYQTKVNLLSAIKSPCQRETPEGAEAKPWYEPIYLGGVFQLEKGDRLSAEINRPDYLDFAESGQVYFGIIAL
T1 sequence (P01375 77-233 limits assumed): as above

| Molecule | L929* [EC50-E105/EC50-X], potency relative to ESBA105 [6] | Kd [8] [nM] | koff [8] [s⁻¹] | kon [8] [M⁻¹ s⁻¹] | further results |
| --- | --- | --- | --- | --- | --- |
| Adalimumab (antibody) |  |  |  |  | IC50, block of cytotoxic activity (murine L929 cells, 1000 pg/ml TNF) [1]: 8.46 ng/mL; IC50, block of cytotoxic activity (human Kym-1 cells, 10 pg/ml TNF) [2]: 66.2 ng/mL; IC50, block of cytotoxic activity (murine L929 cells, 1000 pg/ml TNF) [2]: 8.45 ng/mL |
| 34min (scFv, also called EP34min; EP34_min) scFv (VL-linker-VH): EIVMTQSPSTLSASVGDRVIITCQSSQSVYGNIWMAWYQQKPGKAPKLLIYQASKLASGVPSRFSGSGSGAEFTLTISSLQPDDFATYYCQGNFNTGDRYAFGQGTKLTVLGGGGGSGGGGSGGGGSGGGGSEVQLVESGGGLVQPGGSLRLSCAASGFTISRSYWICWVRQAPGKGLEWVSCIYGDNDITPLYANWAKGRFTISRDNSKNTLYLQMNSLRAEDTAVYYCAKLGYADYAYDLWGQGTLVTVSS |  |  |  |  | binding result [3]: binds |
| EP43_max (scFv, scFv NH2-VL-(GGGGS)4-VH-COOH; also called 676) scFv: EIVMTQSPSTLSASVGDRVIIKCQASQSISDWLAWYQQKPGKAPKLLIYGASRLASGFPSRFSGSGSGAEFTLTISGLEPADFATYYCQQGWSDSYVDNLFGQGTKLTVLGGGGGSGGGGSGGGGSGGGGSEVQLVESGGGLVQPGGSLRLSCTVSGFSLSSGAMSWVRQAPGKGLEWVGVIISSGATYYASWAKGRFTISKDTSKNTVYLQMNSLRAEDTAVYYCARGGPDDSNSMGTFDPWGQGTLVTVSS | 6.4 ratio EC50 ESBA105/EC50 X (mass units, ng/ml) | 0.249 | 5.68e-05 | 228000 | EC50, L929 potency assay [4]: 1 ng/mL; L929* [EC50-E105/EC50-X], potency relative to ESBA105 [5]: 6.4 ratio EC50 ESBA105/EC50 X (mass units, ng/ml); Kd [7]: 0.251 nM; koff [7]: 4.48e-05 s⁻¹; kon [7]: 178000 M⁻¹ s⁻¹ |
| EP43_maxDHP (scFv) scFv: EIVMTQSPSTLSASVGDRVIIKCQASQSISDWLAWYQQKPGKAPKLLIYGASRLASGFPSRFSGSGSGAEFTLTISGLEPADFATYYCQQGWSDSYVDNLFGQGTKLTVLGGGGGSGGGGSGGGGSGGGGSEVQLVESGGGSVQPGGSLRLSCTVSGFSLSSGAMSWVRQAPGKGLEWVGVIISSGATYYASWAKGRFTISKDTSKNTVYLQMNSLRAEDTATYYCARGGPDDSNSMGTFDPWGQGTSVTVSS | 6.7 ratio EC50 ESBA105/EC50 X (mass units, ng/ml) | 0.116 | 2.73e-05 | 235000 |  |
| EP43_minmax (scFv, Min graft VL with max graft VH; also called 958) scFv: EIVMTQSPSTLSASVGDRVIITCQASQSISDWLAWYQQKPGKAPKLLIYGASRLASGVPSRFSGSGSGAEFTLTISSLQPDDFATYYCQQGWSDSYVDNLFGQGTKLTVLGGGGGSGGGGSGGGGSGGGGSEVQLVESGGGLVQPGGSLRLSCTVSGFSLSSGAMSWVRQAPGKGLEWVGVIISSGATYYASWAKGRFTISKDTSKNTVYLQMNSLRAEDTAVYYCARGGPDDSNSMGTFDPWGQGTLVTVSS | 1.6 ratio EC50 ESBA105/EC50 X (mass units, ng/ml) | 0.868 | 0.000198 | 228000 |  |
